Results published in PMC2794250, “An MDM2 antagonist (MI-319) restores p53 functions and increases the life span of orally treated follicular lymphoma bearing animals” (2009).

Target: recombinant His-tagged MDM2 (amino acids 1-118) (human) (UniProt Q00987)
Assay: FP; competition with PMDM6-F

Substance: natural p53 peptide (from UniProt P04637)
- Ki: 6.7 µM
